The results in this text go back to the Immune Epitope Database (IEDB).

For the first test, the target named is HLA-A*01:01. In words: IEDB peptide-MHC binding, purified MHC/competitive/radioactivity; ≥ and ≤ were set here for values at or beyond the usual limits of such assays. Particulars: source organism: unidentified.
By IC50 is commonly meant the concentration that gives 50% inhibition. For ADTDSPLRY, the IC50 was 0.032 µM.

For DKDGCMVEQY, the IC50 was determined as 10 µM.

As for EKPHSEAGTAF, the IC50 is 10 µM.

With ETESQQIRY, the IC50 amounted to 0.03 µM.

Consider GCLDTAQRNLY, for which the concentration for half-maximal inhibition (IC50) was 0.201 µM.

Consider GLELSGCIVY, for which the IC50 turned out to be 5.13 µM.

Turning to LVIDNGSGMCKG, the 50% inhibitory concentration (IC50) was found to be 26.6 µM.

For the sequence PHSPALQPI, the half-maximal inhibitory concentration (IC50) is 1.71 µM.

Another test addresses HLA-A*03:01. The description is as above. Particulars: source organism: unidentified.
As to ALSPVLIPR, the IC50 turned out to be 0.0048 µM.

With AVYEGHVSCVKG, the IC50 worked out at 12.3 µM.

With GATCELPLQK, the IC50 amounted to 13.1 µM.

Take GFQNALLVR: the half-inhibitory concentration (IC50) worked out at 8.48 µM.

GITCPQVLIQK: the IC50 was found to be 0.819 µM.

Take GSTCIYGGAPK: the IC50 is 0.666 µM.

For the sequence GVVCPVSDILYK, the half-inhibitory concentration (IC50) amounted to 0.202 µM.

Regarding IISIVTGLK, the concentration for half-maximal inhibition (IC50) was 0.014 µM.

For KISFPIIAK, the IC50 stood at 0.00078 µM.

On to LDAGLKKQFYK, for which the IC50 was determined as 0.96 µM.

For LNDRGGSVIK, the IC50 was 10 µM.

Turning to NTCQDAAIVGYK, the IC50 is 1.31 µM.

As to PSVGPVLGR, the IC50 was determined as 2.19 µM.

With QDKVKTLTGK, the IC50 was 10 µM.

Take QFLEENTNILK: the IC50 amounted to 18.6 µM.

With QTALVEIIK, the IC50 was found to be 2.72 µM.

For RAAAPPLPR, the IC50 is 0.175 µM.

As to RAAPPPPPR, the IC50 worked out at 0.056 µM.

Turning to RAVPGPPAR, the IC50 is 0.372 µM.

With RIKFSDDRVCKG, the IC50 amounted to 25.7 µM.

Consider RLADKSVLVCKG, for which the IC50 was determined as 0.343 µM.

Consider RSLTGILGK, for which the IC50 was determined as 0.238 µM.

RTGVPPTIR: the IC50 was found to be 2.59 µM.

For the sequence RVFPSNVICKG, the IC50 stood at 1.83 µM.

As to SLFSTSSKL, the IC50 was 8.74 µM.

Regarding STLTDSLVCGK, the IC50 was determined as 0.031 µM.

As for SVRELNFTK, the IC50 came out at 0.119 µM.

The target in another test is HLA-B*07:02. The test is described as above. The following applies: source organism: unidentified.
In the case of APRRPTQGTVTF, the IC50 amounted to 0.0043 µM.

Regarding FPRVSTPLA, the IC50 stood at 0.098 µM.

For GVWEEVGCAKG, the half-maximal inhibitory concentration (IC50) came to 0.266 µM.

On to LGPRAAAAGAL, for which the 50% inhibitory concentration (IC50) is 0.033 µM.

LPPPARPPI: the IC50 was 0.111 µM.

Regarding LPRGGSVLVTCG, the IC50 was determined as 0.554 µM.

In the case of NPRGARVIAL, the IC50 was 0.00096 µM.

PGREAVSKL: the 50% inhibitory concentration (IC50) was 11.5 µM.

PGRGARRLLALV: the half-inhibitory concentration (IC50) was 0.713 µM.

Consider PKASSGSFSL, for which the IC50 is 11.3 µM.

Consider PLRDARVSDL, for which the IC50 turned out to be 8.49 µM.

For PSTLNVGTL, the IC50 turned out to be 10 µM.

With PVEKNTVEL, the IC50 amounted to 9.21 µM.

As for PVRPAAAAATAL, the IC50 was 3.23 µM.

Regarding RPRWGAAAS, the IC50 was 0.0036 µM.

In the case of SPLAASKECAV, the IC50 worked out at 0.367 µM.

As to VPAQSRPCVG, the half-inhibitory concentration (IC50) came out at 4.59 µM.

As to WSVMDQDSL, the IC50 was 10 µM.

For the next test, the target named is HLA-B*27:05. Described as above. The following applies: source organism: unidentified.
In the case of AHKEIHQQL, the half-inhibitory concentration (IC50) came to 0.083 µM.

Turning to ARCGGALLAL, the IC50 was determined as 0.0053 µM.

ARVKEVEEMCKG: the IC50 came out at 3.17 µM.

Regarding ERAGPLSGKKF, the IC50 is 0.016 µM.

Turning to GKLCQHIIKR, the IC50 is 5.76 µM.

On to GRFEVGKKICLG, for which the IC50 came to 0.032 µM.

Take GRNKLLQSW: the 50% inhibitory concentration (IC50) was 10 µM.

With GRVCSNRHGLIR, the IC50 was found to be 0.657 µM.

For LKRDKLFEK, the IC50 amounted to 10 µM.

As for PKLLGPLSL, the IC50 was found to be 27.6 µM.

As for PRGSGGIGL, the IC50 came out at 0.336 µM.

Regarding PRPRGGSDL, the IC50 was found to be 0.466 µM.

For the sequence RGLASPPPVR, the half-inhibitory concentration (IC50) turned out to be 0.833 µM.

Turning to RRNDKQLCIG, the IC50 turned out to be 0.108 µM.

For RRVSQGLLGK, the IC50 was determined as 0.0016 µM.

On to RRVYLEGRCVG, for which the IC50 amounted to 0.024 µM.

For the sequence RRYNGGVGRCQ, the IC50 stood at 0.016 µM.

For the sequence TRLVLDPVR, the IC50 came to 0.241 µM.

With TRSTGLLGVK, the IC50 was 1.52 µM.

Regarding VRSPGATASSL, the 50% inhibitory concentration (IC50) came to 0.986 µM.
